Source: patent publication US20240262901A1 (published 2024)

Tests used:
Rat RGMa = Rat RGMa (rat, UniProt D4A188 170-424); assay: BIAcore; Ab captured via anti-hIgG Fc, antigen injected
Procedure: (§1) The potency data correlates with the affinity data (see Table 5). The affinity of h5F9.23 affinity matured Abs towards human RGMa, rat RGMa, and human RGMc were determined by BIAcore analysis (Table 5). Testing Abs were captured to the surface of a CM5 chip via anti-hIgG Fc Ab, and serially diluted antigens were injected. Association and dissociation rates were monitored for 5 and 10 min respectively. Sensorgrams were fitted by global analysis using the BIAevaluation 4.0.1 software for a 1:1 Langmuir binding model. The equilibrium dissociation constants (KD) were calculated from kinetic rate constants (off rate kd and on rate ka): KD=kd/ka.

human RGMa = biological target: T1, human RGMa (human, UniProt Q96B86 48-422, limits assumed, biotinylated in the indirect ELISA); assay: as above
T1 construct: also called hRGMa; biotin hRGMa
T1 sequence: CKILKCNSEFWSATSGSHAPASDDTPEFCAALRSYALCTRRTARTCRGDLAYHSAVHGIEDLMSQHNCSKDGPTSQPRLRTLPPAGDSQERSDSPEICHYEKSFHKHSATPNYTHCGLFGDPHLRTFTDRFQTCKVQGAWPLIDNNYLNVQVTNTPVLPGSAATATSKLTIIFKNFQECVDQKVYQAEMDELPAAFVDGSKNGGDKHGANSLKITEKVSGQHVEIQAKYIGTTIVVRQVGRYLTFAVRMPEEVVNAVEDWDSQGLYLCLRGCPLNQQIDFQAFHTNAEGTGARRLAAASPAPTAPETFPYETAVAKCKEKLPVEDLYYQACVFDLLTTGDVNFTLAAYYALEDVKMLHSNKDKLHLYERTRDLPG
Procedure: as §1

Rat RGMa, sequence (D4A188 entry or part of it): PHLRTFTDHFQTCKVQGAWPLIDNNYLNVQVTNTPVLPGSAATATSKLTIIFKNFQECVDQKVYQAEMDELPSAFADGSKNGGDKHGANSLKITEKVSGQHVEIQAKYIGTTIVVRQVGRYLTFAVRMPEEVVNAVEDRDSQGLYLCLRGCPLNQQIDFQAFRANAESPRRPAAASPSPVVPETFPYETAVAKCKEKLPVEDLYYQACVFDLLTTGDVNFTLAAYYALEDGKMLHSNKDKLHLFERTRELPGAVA

B1: humanized antibody 5F9.23 (antibody, V domains shown)
VH: EVQLVESGGGLVQPGGSLRLSCAASGFTFSNYGMNWIRQAPGKGLEWIGMIYYDSSEKHYADSVKGRFTISRDNSKNTLYLQMNSLRAEDTAVYYCAKGTTPDYWGQGTMVTVSS
VL: DVVLTQSPLSLPVTLGQPASISCRSSQSLEYSDGYTFLEWFQQRPGQSPRLLIYEVSNRFSGVPDRFSGSGSGTDFTLKISRVEAEDVGVYYCFQATHDPLTFGQGTKLEIKR
notes: also called h5F9.23; H5F9.23
- Kd (Rat RGMa): 2.1 nM
- koff (Rat RGMa): 0.0017 s⁻¹
- kon (Rat RGMa): 830000 M⁻¹ s⁻¹
- kon (human RGMa): 6e+06 M⁻¹ s⁻¹
